Earlier results as cited in PMC5578174.

Columns and labels:
Ang-2 (Homo sapiens) = Ang-2 (Homo sapiens) (UniProt O15123)
PDGFRα (Homo sapiens) = PDGFRα (Homo sapiens) (UniProt P16234)
PDGFRα (Homo sapiens), sequence (P16234 24-528): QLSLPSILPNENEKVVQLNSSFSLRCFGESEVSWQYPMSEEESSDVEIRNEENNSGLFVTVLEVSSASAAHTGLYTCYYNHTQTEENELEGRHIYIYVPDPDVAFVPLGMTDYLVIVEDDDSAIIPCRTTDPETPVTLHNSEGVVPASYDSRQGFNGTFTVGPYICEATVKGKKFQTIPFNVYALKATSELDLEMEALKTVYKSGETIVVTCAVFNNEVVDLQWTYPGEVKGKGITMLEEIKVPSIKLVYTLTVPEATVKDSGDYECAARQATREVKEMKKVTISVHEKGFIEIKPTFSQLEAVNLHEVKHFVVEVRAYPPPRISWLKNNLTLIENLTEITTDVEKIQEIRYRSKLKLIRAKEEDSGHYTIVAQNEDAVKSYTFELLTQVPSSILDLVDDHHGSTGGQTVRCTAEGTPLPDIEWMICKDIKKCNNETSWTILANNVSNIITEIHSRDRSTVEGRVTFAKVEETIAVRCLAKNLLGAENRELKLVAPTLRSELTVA

Ang-2 (Homo sapiens), sequence (O15123 19-496): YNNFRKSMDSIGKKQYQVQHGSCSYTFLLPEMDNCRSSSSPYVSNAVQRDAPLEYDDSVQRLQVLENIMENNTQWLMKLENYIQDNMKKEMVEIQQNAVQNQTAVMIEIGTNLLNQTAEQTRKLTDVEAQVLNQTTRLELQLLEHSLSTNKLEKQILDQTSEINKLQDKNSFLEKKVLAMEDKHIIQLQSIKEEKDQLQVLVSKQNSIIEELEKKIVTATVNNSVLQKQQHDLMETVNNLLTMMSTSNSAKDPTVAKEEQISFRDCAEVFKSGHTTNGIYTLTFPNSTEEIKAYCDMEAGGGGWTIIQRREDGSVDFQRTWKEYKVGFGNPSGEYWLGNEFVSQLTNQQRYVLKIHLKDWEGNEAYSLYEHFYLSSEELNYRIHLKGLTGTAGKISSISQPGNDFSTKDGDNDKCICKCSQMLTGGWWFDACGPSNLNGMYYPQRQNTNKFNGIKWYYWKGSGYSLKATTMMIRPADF

| Substance | Kd (Ang-2 (Homo sapiens)) | Kd (PDGFRα (Homo sapiens)) |
| --- | --- | --- |
| Nesvacumab | 0.024 nM |  |
| Olaratumab |  | 0.04 nM |
